The values below are quoted from earlier work in paper PMC6258349.

For data set [1], the target named is chaperone-adhesin FimC-FimH (Escherichia coli) (UniProt P31697).
For data set [2] the target is unchanged. The source holds these as a separate data set.

Like-named read-outs stand apart in the source and are kept apart here.

Chain of UniProt P31697 (P31697 37-241, chain 1 of 2): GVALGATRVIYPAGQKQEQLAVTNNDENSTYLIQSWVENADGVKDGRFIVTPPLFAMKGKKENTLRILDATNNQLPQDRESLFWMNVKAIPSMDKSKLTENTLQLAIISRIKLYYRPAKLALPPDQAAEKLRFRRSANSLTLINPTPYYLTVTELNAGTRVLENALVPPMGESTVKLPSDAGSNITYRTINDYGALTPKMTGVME
Chain of UniProt P31697 (P08191 22-300, chain 2 of 2, further chain): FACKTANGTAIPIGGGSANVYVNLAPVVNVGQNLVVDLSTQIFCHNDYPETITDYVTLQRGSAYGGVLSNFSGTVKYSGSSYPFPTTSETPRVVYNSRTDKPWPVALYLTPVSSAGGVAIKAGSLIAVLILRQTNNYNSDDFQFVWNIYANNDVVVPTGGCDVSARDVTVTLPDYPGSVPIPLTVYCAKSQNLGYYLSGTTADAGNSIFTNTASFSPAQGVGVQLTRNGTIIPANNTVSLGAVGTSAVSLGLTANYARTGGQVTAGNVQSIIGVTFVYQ

The term Kd denotes the constant that tells how readily two partners part at equilibrium. In the case of FimD usher CTD (from UniProt P30130), the Kd in data set [1] was 0.04 µM. FimD usher NTD (from UniProt P30130): in data set [2], the Kd is 0.389 µM.
